We go through three molecules from PMC9482650, “Quantitative fragmentomics allow affinity mapping of interactomes” (Nature Communications, 2022).

Some targets named below: TJP1_2, Q07157; MAST1, Q9Y2H9; DLG1_2, Q12959; IL16_3, Q14005; PICK1, Q9NRD5; PTPN3, P26045; DLG2_2, Q15700; DLG2_3, Q15700; NOS1, P29475; MAGI2_5, Q86UL8; HTRA1, Q92743.
Experiment in all cases: holdup assay
Holding throughout (design): key: below the threshold = too weak to quantify, mostly under pKd 3.1 to 4
What all share (settings): plain residues with an end cap or a label only (N-terminal biotin on a linker: ado-ado)

For a further assay, the target named is T1, TX1BP3, O14907.
T1 sequence (O14907 10-122, limits assumed, looked up): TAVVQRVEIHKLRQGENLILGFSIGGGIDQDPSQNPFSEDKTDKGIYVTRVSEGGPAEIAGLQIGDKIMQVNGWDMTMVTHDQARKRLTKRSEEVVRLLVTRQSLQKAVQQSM

The next assay addresses T2, LRRC7, Q96NW7.
T2 sequence (Q96NW7 1440-1537, limits assumed, looked up): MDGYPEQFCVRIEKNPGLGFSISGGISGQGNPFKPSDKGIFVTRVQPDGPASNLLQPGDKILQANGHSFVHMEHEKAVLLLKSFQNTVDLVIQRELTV

For a further assay, the target named is T3, MPDZ_10, O75970.
T3 sequence (O75970 1624-1722, limits assumed, looked up): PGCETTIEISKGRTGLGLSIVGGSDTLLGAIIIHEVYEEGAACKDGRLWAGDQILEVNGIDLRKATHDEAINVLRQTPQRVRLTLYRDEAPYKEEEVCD

In another assay the target is T4, NHERF3_1, Q5T2W1.
T4 sequence (Q5T2W1 4-100, limits assumed, looked up): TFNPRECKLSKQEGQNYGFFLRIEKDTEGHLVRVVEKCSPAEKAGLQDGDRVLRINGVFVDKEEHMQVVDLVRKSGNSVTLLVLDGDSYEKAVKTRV

Another assay deals with T5, LIN7A, O14910.
T5 sequence (O14910 103-200, limits assumed, looked up): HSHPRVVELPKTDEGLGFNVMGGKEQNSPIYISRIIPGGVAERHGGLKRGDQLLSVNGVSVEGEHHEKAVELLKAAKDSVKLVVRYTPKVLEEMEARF

The target of a further assay is T6, MPDZ_12, O75970.
T6 sequence (O75970 1857-1958, limits assumed, looked up): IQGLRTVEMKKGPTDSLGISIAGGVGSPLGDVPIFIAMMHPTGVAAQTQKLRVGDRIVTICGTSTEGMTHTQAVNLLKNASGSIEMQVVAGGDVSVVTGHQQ

Another assay concerns the target T7, APBA2_2, Q99767.
T7 sequence (Q99767 654-744, limits assumed, looked up): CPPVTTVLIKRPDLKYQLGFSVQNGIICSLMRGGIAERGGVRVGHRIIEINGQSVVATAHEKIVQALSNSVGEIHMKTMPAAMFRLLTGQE

The target in a further assay is T8, ARHGAP21, Q5T5U3.
T8 sequence (Q5T5U3 45-169, limits assumed, looked up): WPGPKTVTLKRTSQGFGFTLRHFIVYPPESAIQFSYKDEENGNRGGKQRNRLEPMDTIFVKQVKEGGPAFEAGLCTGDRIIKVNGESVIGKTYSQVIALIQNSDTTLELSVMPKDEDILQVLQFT

The target in a further assay is T9, DLG3_1, Q92796.
T9 sequence (Q92796 125-227, limits assumed, looked up): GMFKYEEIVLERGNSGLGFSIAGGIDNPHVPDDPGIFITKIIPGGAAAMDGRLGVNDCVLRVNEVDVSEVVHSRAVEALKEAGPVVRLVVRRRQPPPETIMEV

The target of a further assay is T10, NHERF3_4, Q5T2W1.
T10 sequence (Q5T2W1 373-468, limits assumed, looked up): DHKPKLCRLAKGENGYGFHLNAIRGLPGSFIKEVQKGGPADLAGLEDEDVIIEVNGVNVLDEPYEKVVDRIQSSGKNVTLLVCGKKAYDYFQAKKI

The target of the next assay is T11, DFNB31_2, Q9P202.
T11 sequence (Q9P202 274-371, limits assumed, looked up): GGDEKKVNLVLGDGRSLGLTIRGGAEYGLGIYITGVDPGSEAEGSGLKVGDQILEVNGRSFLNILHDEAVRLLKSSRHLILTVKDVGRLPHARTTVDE

In another assay the target is T12, MPDZ_5, O75970.
T12 sequence (O75970 695-796, limits assumed, looked up): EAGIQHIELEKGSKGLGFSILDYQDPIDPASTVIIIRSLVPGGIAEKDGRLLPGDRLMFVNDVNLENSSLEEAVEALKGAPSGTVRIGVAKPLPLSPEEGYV

In a further assay the target is T13, PDZRN3_1, Q9UPQ7.
T13 sequence (Q9UPQ7 244-349, limits assumed, looked up): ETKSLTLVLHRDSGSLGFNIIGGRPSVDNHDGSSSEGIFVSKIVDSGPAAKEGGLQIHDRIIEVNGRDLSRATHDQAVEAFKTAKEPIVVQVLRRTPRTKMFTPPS

Chain of MAST1, Q9Y2H9 (Q9Y2H9 962-1065): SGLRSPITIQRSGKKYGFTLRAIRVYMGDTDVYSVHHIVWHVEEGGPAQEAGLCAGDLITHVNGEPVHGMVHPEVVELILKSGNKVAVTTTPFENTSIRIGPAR
Chain of PICK1, Q9NRD5 (Q9NRD5 17-115): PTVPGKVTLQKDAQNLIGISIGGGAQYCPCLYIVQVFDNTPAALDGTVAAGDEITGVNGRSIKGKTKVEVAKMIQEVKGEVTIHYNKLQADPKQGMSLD
Chain of IL16_3, Q14005 (Q14005 1107-1207): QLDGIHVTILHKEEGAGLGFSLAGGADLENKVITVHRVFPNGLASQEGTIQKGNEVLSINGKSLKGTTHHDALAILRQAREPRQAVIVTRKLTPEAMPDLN
Chain of NOS1, P29475 (P29475 9-101): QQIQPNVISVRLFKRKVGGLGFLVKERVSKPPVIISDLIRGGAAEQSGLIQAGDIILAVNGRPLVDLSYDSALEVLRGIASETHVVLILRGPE
Chain of HTRA1, Q92743 (Q92743 360-477): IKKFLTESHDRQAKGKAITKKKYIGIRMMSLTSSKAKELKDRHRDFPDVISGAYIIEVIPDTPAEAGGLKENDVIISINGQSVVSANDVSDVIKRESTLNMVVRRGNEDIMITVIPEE
Chain of MAGI2_5, Q86UL8 (Q86UL8 915-1017): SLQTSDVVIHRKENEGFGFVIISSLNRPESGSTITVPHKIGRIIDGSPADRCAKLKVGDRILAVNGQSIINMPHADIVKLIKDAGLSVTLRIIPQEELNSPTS
Chain of DLG1_2, Q12959 (Q12959 314-412): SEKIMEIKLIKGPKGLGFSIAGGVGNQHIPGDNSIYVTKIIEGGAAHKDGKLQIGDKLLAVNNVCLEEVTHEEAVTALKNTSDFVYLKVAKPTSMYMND
Chain of PTPN3, P26045 (P26045 505-587): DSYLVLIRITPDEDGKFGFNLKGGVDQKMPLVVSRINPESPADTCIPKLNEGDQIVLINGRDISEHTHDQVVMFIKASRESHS
Chain of TJP1_2, Q07157 (Q07157 181-274): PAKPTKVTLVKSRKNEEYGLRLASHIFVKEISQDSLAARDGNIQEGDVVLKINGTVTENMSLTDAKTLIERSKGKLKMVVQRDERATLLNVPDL

For LPAHHNATRL [SLC34A1, Q06495;Q06495-1], the negative-log Kd (pKd) result was “below the threshold” with TX1BP3, O14907; “below the threshold” with LRRC7, Q96NW7; “below the threshold” with MPDZ_10, O75970; “below the threshold” in the assay with TJP1_2, Q07157; 5.24 in the assay with NHERF3_1, Q5T2W1; “below the threshold” with LIN7A, O14910. Also, the pKd result with MPDZ_12, O75970 is “below the threshold”; in the assay with MAST1, Q9Y2H9, 4.84; with DLG1_2, Q12959, “below the threshold”; in the assay with APBA2_2, Q99767 it was “below the threshold”; with ARHGAP21, Q5T5U3, 3.99; in the assay with IL16_3, Q14005, “below the threshold”. Besides, the negative-log Kd (pKd) with PICK1, Q9NRD5 was 4.19; with PTPN3, P26045 it was 4; in the assay with DLG2_2, Q15700 it was “below the threshold”; with DLG3_1, Q92796, “below the threshold”; in the assay with NHERF3_4, Q5T2W1, 4.09; with DLG2_3, Q15700, “below the threshold”. For the same molecule, the pKd result in the assay with DFNB31_2, Q9P202 was “below the threshold”; with MPDZ_5, O75970, “below the threshold”; in the assay with NOS1, P29475, 4.09.

KSGKQTMLVV [TRIM29, Q14134;Q14134-2]: the pKd result with LRRC7, Q96NW7 is reported as “below the threshold”; in the assay with MAGI2_5, Q86UL8, “below the threshold”; with PDZRN3_1, Q9UPQ7, “below the threshold”; with NHERF3_1, Q5T2W1 it was “below the threshold”; with LIN7A, O14910 it was “below the threshold”; with MPDZ_12, O75970, “below the threshold”. The negative-log Kd (pKd) entry in the assay with MAST1, Q9Y2H9 is “below the threshold”; with APBA2_2, Q99767, “below the threshold”; in the assay with ARHGAP21, Q5T5U3, 4.14; with IL16_3, Q14005 it was “below the threshold”; with PICK1, Q9NRD5, “below the threshold”; in the assay with HTRA1, Q92743, 4.42. Besides, the pKd entry in the assay with NHERF3_4, Q5T2W1 is given as “below the threshold”; with DLG2_3, Q15700, “below the threshold”; in the assay with DFNB31_2, Q9P202, “below the threshold”; with MPDZ_5, O75970, “below the threshold”; with NOS1, P29475, “below the threshold”.

With VYPNAKVELV [PDLIM4_iso2, P50479;P50479-1], the pKd entry was “below the threshold” with TX1BP3, O14907; “below the threshold” with LRRC7, Q96NW7; “below the threshold” with MPDZ_10, O75970; “below the threshold” with MAGI2_5, Q86UL8; “below the threshold” with PDZRN3_1, Q9UPQ7; “below the threshold” in the assay with NHERF3_1, Q5T2W1. In addition, the pKd result with LIN7A, O14910 is reported as “below the threshold”; in the assay with MPDZ_12, O75970, “below the threshold”; with MAST1, Q9Y2H9, “below the threshold”; with DLG1_2, Q12959 it was “below the threshold”; with APBA2_2, Q99767, “below the threshold”; in the assay with IL16_3, Q14005 it was “below the threshold”. Besides, the pKd was 4.26 with PICK1, Q9NRD5; “below the threshold” in the assay with DLG2_2, Q15700; “below the threshold” with DLG3_1, Q92796; 4.62 in the assay with HTRA1, Q92743; “below the threshold” with NHERF3_4, Q5T2W1; “below the threshold” with DLG2_3, Q15700. Besides, the negative logarithm of the Kd (pKd) entry with DFNB31_2, Q9P202 was “below the threshold”; in the assay with MPDZ_5, O75970 it was “below the threshold”; with NOS1, P29475 it was 4.05.
